We go through 16 sequences from the nanobody polyreactivity screen of Harvey et al. (2022).

This data set can be described thus: yeast display, Sf9 membrane polyspecificity reagent, FACS + sequencing; frameworks hold sequencing errors. A digest of the protocol:
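A synthetic nanobody library was expressed on Saccharomyces cerevisiae BJ5465 by galactose induction for 36–48 hours. The library was stained for 1 hour at 4 °C with 10% biotinylated, detergent-solubilized Sf9 membrane reagent and enriched with streptavidin microbeads before FACS. Low and high (top ~1%) gates were set on anti-HA fluorescence for expression and streptavidin fluorescence for reagent binding, and each polyreactivity label reflects the gate of origin.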
For the sequence “QVKLVESGGGIVQAGGSLRLSCAASGRTFGRNAMGWYRQAPGKERELVASITKRGGSTYYADSVKGRFTISRDNAKDTVYLQMNSLKPEDTAVYYCAVEAYDYWGQGTQVTVSS”, the “polyreactivity (PSR sort gate)” value is on record as “high polyreactivity”. For “QVKLVESGGGLDQAGGSLRLSCAASGSTILQTAMGGYRQAPGKARELVASISRGGSTNYADSVKGRFTISRDNAKTSVYLQMNSLKPEDTEVYFCATRSRRSASPVVYHAYYYWGQGTHVTVSS”, the “polyreactivity (PSR sort gate)” value is listed as “high polyreactivity”. For the sequence “QVKLVESGGGLVQAGASLRLSCAASGIISYGNAMGRYRQAPGKERELVASISGISGSTYYADSVKGRFTISRDNAKNTVYLQMNSLKPEDTAVYYCNARYPTYRASYHGDYWGQGTQVTVSS”, the “polyreactivity (PSR sort gate)” value is “low polyreactivity”.

As for “QVKLVESGGGLVQAGCSLRLSCAASGFIFRSYAMGWYRQAPRKERELVAVISRRGVNTHYADSVKGRFTISRDNAKNTVYLQMNSLKPEDTAVYYCAKGLSALGDYWGQGTQVTVSS”, the “polyreactivity (PSR sort gate)” value was “high polyreactivity”.

With “QVKLVESGGGLVQAGGSLRFSCAASGSTFTKNARGWYRQAPGKERELVAGISRSGGNTYYADSVMGRFTISRDNSKNTVYLQLNRLKPEDTAVSYCAKVVRGIDSNLDDYWGQGTQVTVSS”, the “polyreactivity (PSR sort gate)” value was “high polyreactivity”. The entry for “QVKLVESGGGLVQAGGSLRFTCAASGRTFGSNAMGWYRQAPGKERELVAVITTSGGSTYYADSVKGRFTISRDNAKNTVYLQMISLKPEDTAVYSCAKRVATGYKSYGYGYWGQGTQVTVSS” is “high polyreactivity”; for “QVKLVESGGGLVQAGGSLRLSCAASGFIFSNNAMGWYRQAPGKEMELVAAITWNGGRTYYADSVKGRFTISRDNAKNTVYLQMNSLKQVDTAVYYCAAGRYYPLFYYWGLGTQVTVSS” it is “high polyreactivity”.

As to “QVKLVESGGGLVQAGGSLRLSCAASGFTFISNAMGWYRQAPGKERELVAAISSSGGRTYYADSVKGRFTISRDNAKNTVYLQMNSLKPEDTAVYYCNADRSLLYSRKIEYDYWGQGTQVTVSS”, the “polyreactivity (PSR sort gate)” value is given as “low polyreactivity”.

As for “QVKLVESGGGLVQAGGSLRLSCAASGFTIRSYFIVWNRQAPGKERELVAAITRRGGRTYYADSVKGRFTISRDNAKNTVFLQMNSLKPEDTAVYYCAAGPYLVDVDYWGQGTQVTVSS”, the “polyreactivity (PSR sort gate)” value is listed as “high polyreactivity”. The result for “QVKLVESGGGLVQAGGSLRLSCAASGGIFYFNPMGWYRQEPGKERELVASITWSGGNTYYADSVKGRFTISRDIAKNTVSLQMISLKPEDTAVYYCAAYYVTPIYYYWGQGTQVTVSS” reads “low polyreactivity”; that for “QVKLVESGGGLVQAGGSLRLSCAASGIIFYPNALGWYRQAPGKERELVAAITSDGSTYYADSVKGRFTISRDNAKNTVYLQMNSLKPEDTAVYYCGAWDDYGYDYWGQGTQVTVSS”, “low polyreactivity”. With “QVKLVESGGGLVQAGGSLRLSCAASGITFVLYAMRWYRQAPGKERELVASITWDATDTYYADSVKGRFTISRDNAKNTVYLQMNSLKPEDTAVYYCNAAYFNYWWLEYDYWGQGTQVTVSS”, the “polyreactivity (PSR sort gate)” value is “high polyreactivity”. As to “QVKLVESGGGLVQAGGSLRLSCAASGLIFIGYAMGWYRPAPGKEMELVASIRGVGSTNYADSVKGRFTISRDNAKNTVYLQMNSLKPEDTAVYYCPNSVDRALYTQTRGDYDYWGQGTQVTVSS”, the “polyreactivity (PSR sort gate)” value was “low polyreactivity”.

For “QVKLVESGGGLVQAGGSLRLSCAASGNILGYNAMGWYRQEPGKERELVAAITQSGGSTYYADSVKGRFTISRDNAKYSVYLQMTSLKPEDTAVYDCAVDCGPFYDPFGYWGQGTQVTVSS”, the “polyreactivity (PSR sort gate)” value is “low polyreactivity”. For the sequence “QVKLVESGGGLVQAGGSLRLSCAASGRICGYYAMGWYRQAPGNERELVAAISWSGGSTYYADSVKGRFTISRDNAMNTVYLQRNSLKPEDTAVYYCNARYPNTRKYDYWGQVTQVTVSS”, the “polyreactivity (PSR sort gate)” value was “high polyreactivity”. “QVKLVESGGGLVQAGGSLRLSCAASGRTFGSYAMGRYRQAPGKERELVAAITTDASTNYADSVKGRFTISRDNAKNTIYLQMNSLKPEDTAVYYCAKRNRTYYGYWGQGTQVTVSS”: the “polyreactivity (PSR sort gate)” value is listed as “low polyreactivity”.
